In doi:10.64898/2025.12.17.694870 (bioRxiv, 2025):
Changes are numbered by the printed parent chain. Where no end group is shown, it is not given here.

Tests used:
[1] = molecular target: T1, wild-type Homer1 EVH1 domain (1-118) (Mus musculus, UniProt Q9Z2Y3 1-118); test: NMR titration
T1 sequence (looked up): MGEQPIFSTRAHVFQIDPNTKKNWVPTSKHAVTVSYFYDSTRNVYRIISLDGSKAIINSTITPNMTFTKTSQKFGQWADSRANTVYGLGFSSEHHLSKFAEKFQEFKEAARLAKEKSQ

[2] = molecular target: T2, Homer1 EVH1 domain (1-118) S97L (Mus musculus, UniProt Q9Z2Y3 1-118, S97L); test: NMR titration
T2 sequence (looked up): T1 sequence (looked up) with S97L

[3] = molecular target: T3, Homer1 EVH1 domain (1-118) M65I (Mus musculus, UniProt Q9Z2Y3 1-118, M65I); test: NMR titration
T3 sequence (looked up): T1 sequence (looked up) with M65I

[4] = molecular target: T1, wild-type Homer1 EVH1 domain (1-118); test: BLI
[5] = molecular target: T2, Homer1 EVH1 domain (1-118) S97L; test: BLI
[6] = molecular target: T3, Homer1 EVH1 domain (1-118) M65I; test: BLI

Measured: binding result

LVPPPEEFANG [short Shank3 peptide LVPPPEEFANG]
binds: [1] | [2] | [3]

LVPPPEEFANG (also: biotinylated, site not given here) [biotinylated Shank3 peptide ligand LVPPPEEFANG]
binds: [4] | [5] | [6]
